Measurements reported in US20090137002A1 (published 2009).

Columns and labels:
[1] = target: T1, myc-tagged human EphB4 on transfected CHO cells (human, UniProt P54760 16-987); test: FACS titration on CHO-EphB4 cells
T1 construct: whole, on cells; also called CHO-EphB4; CHO-hEphB4; not shown: myc tag
T1 sequence (looked up): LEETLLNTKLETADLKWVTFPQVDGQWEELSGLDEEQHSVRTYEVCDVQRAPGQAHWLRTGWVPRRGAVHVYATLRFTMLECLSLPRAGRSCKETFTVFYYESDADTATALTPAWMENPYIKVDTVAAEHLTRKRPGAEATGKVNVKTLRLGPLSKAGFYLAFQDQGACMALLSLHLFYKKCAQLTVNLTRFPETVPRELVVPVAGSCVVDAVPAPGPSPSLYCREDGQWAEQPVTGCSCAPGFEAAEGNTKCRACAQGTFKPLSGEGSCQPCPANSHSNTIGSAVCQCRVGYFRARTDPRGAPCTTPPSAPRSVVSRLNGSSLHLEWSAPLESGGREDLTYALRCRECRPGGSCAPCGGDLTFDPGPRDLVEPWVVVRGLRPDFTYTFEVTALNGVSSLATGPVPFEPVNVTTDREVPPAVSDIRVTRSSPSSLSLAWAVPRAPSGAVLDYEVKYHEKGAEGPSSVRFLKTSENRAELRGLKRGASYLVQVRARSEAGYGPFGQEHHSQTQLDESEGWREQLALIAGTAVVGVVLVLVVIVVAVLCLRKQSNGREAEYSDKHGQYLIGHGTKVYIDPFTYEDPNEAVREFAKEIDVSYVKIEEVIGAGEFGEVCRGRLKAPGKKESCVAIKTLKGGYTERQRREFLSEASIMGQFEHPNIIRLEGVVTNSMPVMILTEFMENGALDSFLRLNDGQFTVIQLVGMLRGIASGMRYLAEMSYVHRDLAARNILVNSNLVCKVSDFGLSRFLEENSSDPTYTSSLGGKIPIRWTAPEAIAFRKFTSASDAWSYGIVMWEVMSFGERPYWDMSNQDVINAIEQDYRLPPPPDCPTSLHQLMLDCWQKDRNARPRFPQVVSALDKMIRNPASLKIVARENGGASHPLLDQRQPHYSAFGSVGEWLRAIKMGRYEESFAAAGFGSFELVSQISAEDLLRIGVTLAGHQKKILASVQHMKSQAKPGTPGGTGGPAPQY

[2] = target: T1, myc-tagged human EphB4 on transfected …; test: FACS, inhibition of murine ephrin-B2 binding to CHO-EphB4 cells
Method: CHO-EphB4 cells were preincubated with matured Fab at different concentrations followed by addition of the ligand, murine ephrin-B2 (extracellular domain, 98% identity to human Ephrin-B2). Receptor-bound ephrin-B2 was then detected via biotinylated anti-mouse ephrin-B2 antibody (R&D Systems) and streptavidin-PE. […] The MOR07310 derivatives perform slightly better than the MOR03641 derivatives. The IC50 values of the x-cloned binders are in the same range as those of their cloning parentals.

[3] = target: T2, recombinant murine EphB4-Fc fusion protein (mouse, UniProt P54761 16-539); test: SET (MSD), solution equilibrium titration; n = 1
T2 construct: extracellular domain; also called mEphB4; mu EphB4; not shown: Fc part, not described
T2 sequence (looked up): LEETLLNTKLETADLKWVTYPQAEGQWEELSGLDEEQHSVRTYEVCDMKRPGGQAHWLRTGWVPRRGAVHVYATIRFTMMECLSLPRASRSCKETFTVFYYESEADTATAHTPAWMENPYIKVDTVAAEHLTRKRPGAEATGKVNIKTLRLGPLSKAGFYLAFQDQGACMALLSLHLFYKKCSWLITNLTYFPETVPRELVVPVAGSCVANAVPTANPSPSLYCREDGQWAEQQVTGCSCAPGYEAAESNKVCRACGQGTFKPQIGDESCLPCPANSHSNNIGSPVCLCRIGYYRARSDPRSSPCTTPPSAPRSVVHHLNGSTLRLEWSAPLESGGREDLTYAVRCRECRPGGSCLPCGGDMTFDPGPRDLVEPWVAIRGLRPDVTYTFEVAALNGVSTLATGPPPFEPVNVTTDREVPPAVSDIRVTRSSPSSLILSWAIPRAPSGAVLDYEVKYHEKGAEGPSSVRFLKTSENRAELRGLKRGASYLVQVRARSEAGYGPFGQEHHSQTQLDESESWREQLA
Method: Two independent measurements were performed on human and murine EphB4-Fc.

recombinant mouse EphB2 = target: T3, recombinant mouse EphB2 (mouse, UniProt P54763 19-540, limits assumed); test: ELISA, well M15 [part 2]
T3 construct: also called mEphB2
T3 sequence (looked up): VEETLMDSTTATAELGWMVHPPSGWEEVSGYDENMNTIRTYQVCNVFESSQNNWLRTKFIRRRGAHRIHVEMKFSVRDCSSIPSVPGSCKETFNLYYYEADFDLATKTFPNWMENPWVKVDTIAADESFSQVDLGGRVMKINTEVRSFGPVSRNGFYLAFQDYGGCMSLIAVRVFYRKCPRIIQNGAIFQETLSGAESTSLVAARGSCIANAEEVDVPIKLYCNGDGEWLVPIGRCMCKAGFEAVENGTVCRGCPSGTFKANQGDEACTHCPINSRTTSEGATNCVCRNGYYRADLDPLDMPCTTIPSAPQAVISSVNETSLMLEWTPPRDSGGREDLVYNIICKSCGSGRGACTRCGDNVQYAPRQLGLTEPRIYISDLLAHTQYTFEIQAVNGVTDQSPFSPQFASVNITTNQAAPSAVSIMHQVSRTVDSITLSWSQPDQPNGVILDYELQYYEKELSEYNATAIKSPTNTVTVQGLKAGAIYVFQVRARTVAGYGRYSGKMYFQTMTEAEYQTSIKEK

[4] = target: T4, recombinant mouse EphA4-Fc fusion protein (mouse, UniProt Q03137 20-547, limits assumed); test: ELISA, well P15 [part 2]
T4 construct: also called mEphA4; not shown: Fc part, not described
T4 sequence (Q03137 20-547 limits assumed): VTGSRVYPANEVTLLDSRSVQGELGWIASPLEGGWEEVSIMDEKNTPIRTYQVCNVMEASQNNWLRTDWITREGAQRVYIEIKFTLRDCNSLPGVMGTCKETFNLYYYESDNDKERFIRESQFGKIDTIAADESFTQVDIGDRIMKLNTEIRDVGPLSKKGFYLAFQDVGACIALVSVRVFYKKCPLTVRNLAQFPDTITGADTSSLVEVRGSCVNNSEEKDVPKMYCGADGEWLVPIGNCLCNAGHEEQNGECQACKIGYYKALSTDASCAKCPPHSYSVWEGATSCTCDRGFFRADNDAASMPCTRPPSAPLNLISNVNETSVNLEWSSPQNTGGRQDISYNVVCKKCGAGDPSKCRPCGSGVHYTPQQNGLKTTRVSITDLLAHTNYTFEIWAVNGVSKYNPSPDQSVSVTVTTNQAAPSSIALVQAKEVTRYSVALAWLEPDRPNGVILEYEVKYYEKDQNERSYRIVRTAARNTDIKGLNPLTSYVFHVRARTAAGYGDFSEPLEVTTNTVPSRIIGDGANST

B1: MOR03641 Fab (Fab, V domains shown)
VH: QVQLVQSGAEVKKPGSSVKVSCKASGGTFSTYAISWVRQAPGQGLEWMGRIIPIFGTANYAQKFQGRVTITADESTSTAYMELSSLRSEDTAVYYCARSSYTILTTYYNYNAMDNWGQGTLVTVSS
VL: DIQMTQSPSSLSASVGDRVTITCRASQNINNFLNWYQQKPGKAPKLLIYGSSILQSGVPSRFSGSGSGTDFTLTISSLQPEDFAVYYCHQVSDTSDTFGQGTKVEIKR
notes: Monomeric HuCAL Fab (VH1A, kappa1), purified, MH-tagged; also called 3541 [sic]
**Q.** For B1, which EC50 [1] is on record?
**A.** Its EC50 is > 40 nM.

**Q.** What about the IC50 [2] of the same binder?
**A.** The IC50 was 4.7 nM.

B2: MOR03640 Fab (Fab, V domains shown)
VH: QVQLVESGGGLVQPGGSLRLSCAASGFTFNNSWMSWVRQAPGKGLEWVSNITSSSSMTHYADSVKGRFTISRDNSKNTLYLQMNSLRAEDTAVYYCARKGMSFYNNKYAKSMFDLWGQGTLVTVSS
VL: DIELTQPPSVSVAPGQTARISCSGDNLGKKYVHWYQQKPGQAPVLVIYYDSKRPSGIPERFSGSNSGNTATLTISGTQAEDEADYYCSAWTTTMMHIVFGGGTKLTVLG
notes: Monomeric HuCAL Fab, purified, MH-tagged
**Q.** Which Kd [3] does the source give for B2 here?
**A.** The Kd was 6.63 nM.

**Q.** Does B2 bind (recombinant mouse EphB2)?
**A.** Result: no binding

**Q.** Does B2 bind [4]?
**A.** Result: no binding
